From patent publication US20150056210A1 (ROTTAPHARM BIOTECH S R L, published 2015) come the findings set out here.

Assay [1] deals with T1, Spacer-GST (human).
T1 construct: also called recombinant Spacer-ADAMTS-5-GST protein
Briefly: ELISA, Spacer-GST coated at 10 µg/mL, scFv in solution, anti-V5 detection. The procedure:
FIG. 3. ELISA reactivity of isolated anti-Sp_ADAMTS-5 scFvs with Spacer-GST and GST negative control. Spacer-GST and GST antigens were coated at 10 μg/mL. […] The mean absorbance at 450 nm of the experiments performed in duplicate wells is shown with SD indicated by the bars.
Nunc Maxi-Sorp Immunoplate was coated with […] Sp_ADAMTS-5-GST and GST at 10 μg/mL in coating buffer (100 mM Na₂CO₃ pH 9.6). Plate was incubated overnight at 4° C. next day, the unbound antigens were discarded and plate was washed 3× with PBS. Non-specific binding was blocked by adding […] of 3% MPBS (3% fat free milk in PBS). Plate was incubated for 1 h at RT. Plate was washed 3×TPBS (0.1% Tween20 in PBS) and 3×PBS. 100 μL of serial dilution of anti-Sp_ADAMTS-5scFv (0.5-50 μg/mL) in 3% MPBS was added to appropriate wells. Then plate was incubated for 2 h at RT. After washing with 3×TPBS and 3×PBS, 100 μL of anti-V5 antibody (Invitrogen) diluted 1:5000 in 3% MPBS was added to each well. Plate was incubated for 1 h and 30 min at RT. After washing with 3×TPBS and 3×PBS 100 μL of anti-mouse HRP (DAKO) diluted 1:2000 in 3% MPBS was added to each well. Plate was incubated for 1 h at RT. After washing with 3×TPBS and 3×PBS 80 μL of TMB (Sigma) was added. Plate was incubated in dark chamber until samples reach the desired signal. 80 μL of stopping solution (500 mM H₂SO₄) was added to each well before reading. Data were collected measuring OD(450 nm) by LD 400 Luminescence Detector (Beckman Coulter).

Assay [2] deals with T1, Spacer-GST. In words: sandwich ELISA with Spacer-GST, data not shown.
The target in assay [3] is T1, Spacer-GST. In words: SPR (Biacore), Spacer-GST immobilised, CRB0017_IgG4 in solution, bivalent binding model, KD2, data not shown.
For assay [4], the target named is T1, Spacer-GST. In words: SPR (Biacore X-100), CRB0017_IgG4 immobilised on CM5 chip, Spacer-GST in solution, KD1.

T1 sequence (chain, as listed by the source limits assumed): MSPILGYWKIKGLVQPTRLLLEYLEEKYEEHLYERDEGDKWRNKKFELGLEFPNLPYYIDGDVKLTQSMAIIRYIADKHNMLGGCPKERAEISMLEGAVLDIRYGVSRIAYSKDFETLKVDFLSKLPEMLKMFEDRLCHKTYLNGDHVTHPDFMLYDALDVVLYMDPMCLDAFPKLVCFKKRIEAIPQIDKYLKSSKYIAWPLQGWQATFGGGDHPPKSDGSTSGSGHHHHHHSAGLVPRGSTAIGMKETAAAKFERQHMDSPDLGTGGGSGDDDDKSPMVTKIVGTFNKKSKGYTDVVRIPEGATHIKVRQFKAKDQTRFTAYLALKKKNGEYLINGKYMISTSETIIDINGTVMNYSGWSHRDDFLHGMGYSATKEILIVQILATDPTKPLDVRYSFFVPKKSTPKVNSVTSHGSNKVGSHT

B1: CRB0123 scFv (scFv)
scFv: QVQLQESGGGVVQPGRSLRLSCAASGFTFSGYGMNWVRQAPGTGLEWVATISFDGTDKYYADSVKGRFTISRDNAENTLYLQMNSLRAEDMAVYYCARDWSYAMDVWGQGTMVTVSSSGGSTSGSGKPGSGEGSSGTDIQMTQSPSSVSASVGDRVTITCRPSQGIGKYSAWYQQKPGKAPELPIYLASTLQSGVPSRFSDSGSGTEFTLTISSLQPEDFATYYCLQRNTYPWTFGQGTKVEIK
notes: VP16 fusion in the yeast selection; also called clone S50
On to B1, for which the binding result with Spacer-GST [1] is “binds”.

B2: monoclonal antibody CRB0102 (antibody, V domains shown)
VH: EVQLVESGSDVKKPGASVRVSCKVSGYRLTEYPIHWVRQAPGKGLEYMGGFDLENGVTKAAPRFRGRFTMTEDTSTDSVYMELKSLTSEDTAVYYCVKGPGYGALVTSFTSWGLGTLVTVSS
VL: ETTLTQSPAFMSATPGDKIYISCKASQDIDDDMNWYQQKPGEAAIFIIQEATTLVPGIPPRFSGSGYGTDFTLTINNMESEDAAYYFCPQQDNVPLTFGGGTKVDIK
notes: also called CRB0102 IgG4
For B2, in the assay with Spacer-GST [2], the binding result is “binds”.

B3: CRB0017 scFv (scFv)
scFv: DIVITQDELSNPVTSGESVSISCRSSKSLLYKDGKTYLYWFLQRPGQSPQLPIYLMSTRASGVSDRFSGSGSGTDFTLEISRVKAEDVGVYYCQQLVEYPYTFGGGTKLEIKRSGGSTRGSGKPGSGEGSSGTQVQLQQSGAELAKPGASVKMSCKASGYTFTSYWMHWVKQRPGQGLEWIGYINPSTGYTEYNQKFKDKATLTADKSSSTAYMQLGSLTSEDSAVYYCARGGYDDLGYWGQGTTLTVSS
notes: detected in ELISA with an anti-V5 antibody, tag not described; also called clone M6
Regarding B3, the binding result in the assay with Spacer-GST [1] is “binds”.

B4: CRB0092 scFv (scFv)
scFv: QSVVTQPPSVSGAPGQRVTISCTGSSSNIGAGYDVHWYQQLPGTAPKLLIYGNDNRPSGVPDRFSGSKSGTSASLAITGLQAEDEADYYCQSYDNSLSGYAVFGGGTQLTVLSGGSTSGSGKPGSGEGSSGTQVQLVESGGGLVQPGGSLRLSCAASGFRFSSHDMHWVRQVPGKGLEWVSRIGTVGDTYYADSVKGRFTISRDNSKNTLFLQMNSLGAEDTAVYYCARDGTRYCSRTSCHSGYYYYGMDVWGQGTTVTVSS
notes: VP16 fusion in the yeast selection; also called clone C21
For the molecule B4, the binding result in the assay with Spacer-GST [1] was “binds”.

B5: CRB0018 scFv (scFv)
scFv: DIVMTQSPASLAVSQGQRATISCRASESVDSYGNSFMHWYQQKPGQPPKLPIYLASNLESGVPARFSGSGSRTDFTLTIDPVEADDAATYYCQQNNEELTFGAGTKLELKRSGGSTSGSGKPGSSEGSSGTEVKLLESGGGLVQPGGSLKLSCTTSGFDFSRYWMSWVRQAPGKGLEWIGEINPDSSTINYTPSLKDKFIISRDNAKNTLYLQMSKVRSEDTALYYCARRSYWYFDVWGAGTSVTVSS
notes: VP16 fusion in the yeast selection; also called clone 7A (mSPLINT)
With B5, the binding result in the assay with Spacer-GST [1] is on record as “binds”.

B6: CRB0091 scFv (scFv)
scFv: DIVMTQSPSSLSASVGDRVTITCRASQAIGNDLAWYQQRPGKAPKRLIYGASTLSSGVPSRFSGSGSGTEFTLTISSLQPDDFATYYCQQYNNFPYTFGLGTKVEIKSGGSTSGSGKPGSGEGSSGTQVQLQQWGAGLLKPSETLSLTCAVHGGSFSGNFWSWVRQHPGKGLEWIGEVNHRGSATYNPSLKSRVTMSVDTSKNQFSLQLSSVTAADTAVYYCARKLPRRRAEDRPSSLRPFDYWGQGTLVTVSS
notes: VP16 fusion in the yeast selection; also called clone 7A (huSPLINT_09)
For the molecule B6, the binding result in the assay with Spacer-GST [1] is listed as “binds”.

B7: CRB0017_IgG4 (antibody, V domains shown)
VH: QVQLQQSGAELAKPGASVKMSCKASGYTFTSYWMHWVKQRPGQGLEWIGYINPSTGYTEYNQKFKDKATLTADKSSSTAYMQLGSLTSEDSAVYYCARGGYDDLGYWGQGTTLTVSS
VL: DIVITQDELSNPVTSGESVSISCRSSKSLLYKDGKTYLYWFLQRPGQSPQLPIYLMSTRASGVSDRFSGSGSGTDFTLEISRVKAEDVGVYYCQQLVEYPYTFGGGTKLEIK
notes: Chimeric IgG: murine variable domains on human constant domains (Fc from human IgG4, kappa light chain), made in CHO-S cells; also called mAb CRB0017; CRB017 IgG4
Take B7: the values for the Kd with Spacer-GST [3] and in the assay with Spacer-GST [4] were 7 nM and approximately 2 nM, respectively.

B8: CRB0122 scFv (scFv)
scFv: QVQLQESGGGLVRPGGSLRLSCAASGFTFSSYAMTWVRQAPGKGLEWVSAISGSGDSTYYADSVKGRFTISRDNSKNTLYLQMDSLRVEDTAVYYCARDRDLLHKDGFDIWGQGTMVTVSSSGGSTSGSGKPGSGEGSSGTQSVLTQPPSASASLGASVTLTCTLSSGYSNYKVDWYQQTPGKGPRFVMRVGTGGTVGSKGDGIPDRFSVLGSGLNRYLIIKNIQEEDETDYHCGADHGSGSNFVYVFGSGTKVTVL
notes: VP16 fusion in the yeast selection; also called clone S39
For B8, in the assay with Spacer-GST [1], the binding result is recorded as “binds”.

B9: CRB0019 scFv (scFv)
scFv: DIVMTQSHKFMSTSEGDRVSITCKASQDVGTAVAWYQQKPGQSPKLLIYWASTRHTGVPDRFTGSGSGTDFTLTISNVQSEDLADYICQQYCSHPYTFGAGTKLEIKRSGGSTSGSGKPGSGEGSRGTQVQLQQSGAEPVKPGASVKLSCTASGFNIKDTYMHWVKQRPEQGLEWIGRIDPAHGRTKYDPKFQGKATITADTSSNTAYLQLSSLSSEDTAVYYCAFYSYAIDYWGQGTSVTVSS
notes: VP16 fusion in the yeast selection; also called clone 14
For B9, the binding result with Spacer-GST [1] is “binds”.

B10: CRB0124 scFv (scFv)
scFv: QVQLVQSGSDVKKPGASVRVSCKVSGYRLTEYPIHWVRQAPGKGLEYMGGFDLENGVTKAAPRFRGRFTMTEDTSTDSVYMELKSLTSEDTAVYYCVKGPGYGALVTSFTSWGLGTTVTVSSSGGSTSGSGKPGSGEGSSGTSYVLTQPPSVSVSPGQTASITCSGDKLEDKYACWYQQKPGQSPVLVIYHDYKRPSGIPERFSGSNSGNTATLTISRVEGGDEADYYCQVWDSGSDDQVFGGGTKLTVL
notes: VP16 fusion in the yeast selection; also called clone S53a
As for B10, the binding result in the assay with Spacer-GST [1] was “binds”.

B11: CRB0102 scFv (scFv)
scFv: EVQLVESGSDVKKPGASVRVSCKVSGYRLTEYPIHWVRQAPGKGLEYMGGFDLENGVTKAAPRFRGRFTMTEDTSTDSVYMELKSLTSEDTAVYYCVKGPGYGALVTSFTSWGLGTLVTVSSSGGSTSGSGKPGSGEGSSGTETTLTQSPAFMSATPGDKIYISCKASQDIDDDMNWYQQKPGEAAIFIIQEATTLVPGIPPRFSGSGYGTDFTLTINNMESEDAAYYFCPQQDNVPLTFGGGTKVDIK
notes: VP16 fusion in the yeast selection; also called clone 15A
Take B11: the binding result in the assay with Spacer-GST [1] is given as “binds”.

B12: CRB0123_IgG4 (antibody, V domains shown)
VH: QVQLQESGGGVVQPGRSLRLSCAASGFTFSGYGMNWVRQAPGTGLEWVATISFDGTDKYYADSVKGRFTISRDNAENTLYLQMNSLRAEDMAVYYCARDWSYAMDVWGQGTMVTVSS
VL: DIQMTQSPSSVSASVGDRVTITCRPSQGIGKYSAWYQQKPGKAPELPIYLASTLQSGVPSRFSDSGSGTEFTLTISSLQPEDFATYYCLQRNTYPWTFGQGTKVEIK
notes: also called mAb CRB0123; monoclonal antibody CRB0123
For B12, the binding result in the assay with Spacer-GST [2] is “binds”.

B13: CRB0094 scFv (scFv)
scFv: QSVLTQPPSASGSPGQSVTISCTGTSSDVGGYNYVSWYQQHPGKAPKLLIYDVSNRPSGVSSRFSGSKSGNSASLTISGLQAEDEADYYCSSYTRRSTLEFGGGTKLTVLSGGSTSGSGKPGSGEGSSGTQVQLQQWGAGLLKPSGTLSLTCAVYGGSFSGYYWSWIRQPPGKGLEWIGEINHSGSTNYNPSLKSRVTISVDTSKNQFSLKLSSVTAADTAVYYCARTIWSTRHDFWSGYYSSNWFDPWGQGTLVTVSS
notes: VP16 fusion in the yeast selection; also called clone 48B
Regarding B13, the binding result with Spacer-GST [1] was “binds”.
